Assay [1] concerns the target T1, chemokine receptor 5 (CCR5; AC P51681) (human, UniProt P51681 1-352). The experiment in a line: cell-based or functional assay.
The target of assay [2] is T2, chemokine receptor CCR1 (human, UniProt P32246 1-355).
T2 construct: whole, on cells
T2 sequence (looked up): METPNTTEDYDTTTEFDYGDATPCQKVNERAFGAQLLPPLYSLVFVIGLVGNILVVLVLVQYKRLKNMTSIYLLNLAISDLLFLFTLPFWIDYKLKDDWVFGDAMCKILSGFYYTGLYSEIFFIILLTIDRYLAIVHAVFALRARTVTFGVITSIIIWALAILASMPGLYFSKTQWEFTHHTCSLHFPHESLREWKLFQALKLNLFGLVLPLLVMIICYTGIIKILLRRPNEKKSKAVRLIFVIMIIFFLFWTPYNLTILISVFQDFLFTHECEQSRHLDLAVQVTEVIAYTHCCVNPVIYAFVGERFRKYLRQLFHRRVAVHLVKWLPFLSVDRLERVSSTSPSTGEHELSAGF
The experiment in a line: radioligand competition binding on CCR1. (In general: Loss of bound radioactivity is the signal in a displacement assay; it reports binding, not function.)

For assay [3], the target named is T1, chemokine receptor 5 (CCR5; AC P51681). The experiment in a line: radioligand competition, 0.1 nM 125I-MIP 1-alpha tracer, membranes of CHO-K1 cells expressing CCR5.
The target in assay [4] is T3, chemokine receptor CCR3 (human, UniProt P51677 1-355).
T3 construct: whole, on cells; Aequorin assays used whole cells
T3 sequence (looked up): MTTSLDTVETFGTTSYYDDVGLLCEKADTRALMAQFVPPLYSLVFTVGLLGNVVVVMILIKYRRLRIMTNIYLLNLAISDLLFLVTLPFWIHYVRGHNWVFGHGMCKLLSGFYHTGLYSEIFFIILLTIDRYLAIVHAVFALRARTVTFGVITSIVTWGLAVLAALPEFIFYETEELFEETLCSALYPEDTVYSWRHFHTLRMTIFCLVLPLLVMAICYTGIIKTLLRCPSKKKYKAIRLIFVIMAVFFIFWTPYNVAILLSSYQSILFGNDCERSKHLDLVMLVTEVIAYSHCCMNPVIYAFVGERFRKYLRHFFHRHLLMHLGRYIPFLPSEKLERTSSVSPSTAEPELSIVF
The experiment in a line: radioligand competition, 0.1 nM 125I-Eotaxin tracer, membranes of CHO-K1 cells expressing CCR3.

Assay [5] deals with T2, chemokine receptor CCR1. In words: cell-based or functional assay.
The target in assay [6] is T3, chemokine receptor CCR3. In words: cell-based or functional assay.
In assay [7] the target is T2, chemokine receptor CCR1. The experiment in a line: radioligand competition, 125I-Rantes tracer on CCR1.
Assay [8] concerns the target T1, chemokine receptor 5 (CCR5; AC P51681). In words: radioligand competition, 125I-MIP 1-alpha tracer on CCR5.
Assay [9] has as its target T2, chemokine receptor CCR1. In words: radioligand competition, 0.1 nM 125I-Rantes tracer, membranes of CHO-K1 cells expressing CCR1.
In assay [10] the target is T3, chemokine receptor CCR3. In words: radioligand competition, 125I-Eotaxin tracer on CCR3.

The record followed here is patent EP1224288B1 (Pharis Biotec GmbH, dated 2006).

T1 sequence (P51681 whole entry, one chain of several): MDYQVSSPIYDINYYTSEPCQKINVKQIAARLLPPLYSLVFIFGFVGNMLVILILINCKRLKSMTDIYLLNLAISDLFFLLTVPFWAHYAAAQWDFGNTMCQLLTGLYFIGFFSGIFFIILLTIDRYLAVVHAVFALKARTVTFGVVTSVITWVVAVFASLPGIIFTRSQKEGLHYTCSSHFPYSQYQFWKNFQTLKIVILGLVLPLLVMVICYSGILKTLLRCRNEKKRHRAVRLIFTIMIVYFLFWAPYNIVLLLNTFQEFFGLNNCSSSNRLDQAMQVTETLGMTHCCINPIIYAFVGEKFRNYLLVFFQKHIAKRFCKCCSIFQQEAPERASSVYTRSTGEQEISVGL

B1: MIP 1-alpha (ligand, UniProt P10147 24-92, looked up)
chain: SLAADTPTACCFSYTSRQIPQNFIADYFETSSQCSKPGVIFLTKRSRQVCADPSEEWVQKYVSDLELSA
modifications: also: 125I-labelled as tracer, position not given here
On to B1, for which, in [1], the “Aequorin assay, activation of CCR5 transfected CHO-K1 cells, EC50” value (from here on “Aequorin assay, activation”) amounted to 3.3 nM.

B2: full size HCC-1 (HCC-1, residues 1-74) (ligand)
chain: TKTESSSRGPYHPSECCFTYTTYKIPRQRIMDYYETNSQCSKPGIVFITKRGHSVCTNPSDKWVQDYIKDMKEN
notes: also called full-length HCC-1; HCC-1, 1-74
With B2, the affinity in the assay with chemokine receptor CCR1 [2] corresponds to a Ki of 100 nM.

B3: processed chemokine PHC-1 (HCC-1, residues 9-74) (ligand)
chain: GPYHPSECCFTYTTYKIPRQRIMDYYETNSQCSKPGIVFITKRGHSVCTNPSDKWVQDYIKDMKEN
notes: also called HCC-1[9-74]
For B3, the IC50 – broadly, the midpoint of a concentration-inhibition curve – came to 0.04 nM in assay [3], 78 nM in the assay with chemokine receptor CCR3 [4] and 2.3 nM with chemokine receptor CCR1 [9]. The “Aequorin assay, EC50” value with chemokine receptor CCR1 [5] came out at 2.8 nM; with chemokine receptor CCR3 [6], 78 nM. Further, in assay [1], the “Aequorin assay, activation” value came out at 4.8 nM. In addition, the Ki (commonly the equilibrium dissociation constant of an inhibitor or competing ligand from its target) with chemokine receptor CCR1 [7] was 0.023 nM; in assay [8], 0.04 nM; with chemokine receptor CCR3 [10], 2.7 nM.

B4: RANTES (ligand, UniProt P13501 24-91, looked up)
chain: SPYSSDTTPCCFAYIARPLPRAHIKEYFYTSGKCSNPAVVFVTRKNRQVCANPEKKWVREYINSLEMS
modifications: also: 125I-labelled as tracer, position not given here
B4: the “Aequorin assay, EC50” value with chemokine receptor CCR1 [5] was 6.3 nM. Also, the “Aequorin assay, activation” value in assay [1] came out at 2.4 nM.
